pKd: −log10 of the molar value.
These substances were tested against Shiftless (SHFL) WT (human) (UniProt Q9NUL5) (assay: EMSA).
Sequence of Shiftless (SHFL) WT (human) (Q9NUL5 whole entry): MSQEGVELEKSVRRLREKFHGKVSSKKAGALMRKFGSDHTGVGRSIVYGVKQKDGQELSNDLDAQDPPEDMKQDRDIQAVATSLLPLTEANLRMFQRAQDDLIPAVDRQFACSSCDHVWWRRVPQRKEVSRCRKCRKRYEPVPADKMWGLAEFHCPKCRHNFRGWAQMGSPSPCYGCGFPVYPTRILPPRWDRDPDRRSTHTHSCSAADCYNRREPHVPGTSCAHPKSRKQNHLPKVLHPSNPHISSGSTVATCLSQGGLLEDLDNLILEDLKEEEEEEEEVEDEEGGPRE
In the case of “GACCCUAGAUGACUAGGGAGGUCAGGGACACGAGCCCCCCCCUGAACCCAGGAUAACCCUCAAAGUCGGGGGGCAACCCGUCAC [MuLV S1]”, the pKd was 6.30.
“GACCCUAGAUGACUAGGGAGGUCAGGGUCAGGAGCCCCCCCCUGAACCCAGGAUAACCCUCAAAGUCGGGGGGCAACCCGUCAC [MuLV RT signal]” showed a pKd of 6.30.
IBVmax (wild-type pseudoknot) showed a pKd of 6.30.
With control RNA (SARS-CoV-2 antigenome) the pKd was 6.30.

— publication PMC8310280
